Test results reported in patent publication US20260167721A1 (ABLEXIS, published 2026).

Key:
[1] = target: T1, recombinant human CD3 epsilon/delta heterodimer (human, UniProt P07766 23-126; P04234 22-105); experiment: Octet BLI, mAb on FAB2G sensor, hCD3 E/D 200-50 nM; R^2 1.00
T1 construct: Recombinant protein in solution (200-50 nM) in the Octet assay; also called hCD3 E/D; human CD3E/D

[2] = target: T2, recombinant human CD3 epsilon/gamma heterodimer (human, UniProt P07766 23-126; P09693 23-116); experiment: Octet BLI, mAb on FAB2G sensor, hCD3 E/G 200-50 nM; R^2 0.76
T2 construct: Recombinant protein in solution (200-50 nM) in the Octet assay; also called hCD3 E/G
Protocol: (§1) Samples were evaluated by flow cytometry analysis against Jurkat and human Pan-T cells (FIG. 1B) as well as by Octet against recombinant human CD3 proteins to evaluate apparent affinities and binding off-rates (Table 6, infra).

[3] = target: T1, recombinant human CD3 epsilon/delta …; experiment: Octet BLI, mAb on FAB2G sensor, hCD3 E/D 200-50 nM; R^2 0.97
Protocol: as §1

[4] = target: T2, recombinant human CD3 epsilon/gamma …; experiment: Octet BLI, mAb on FAB2G sensor, hCD3 E/G 200-50 nM; R^2 0.91
Protocol: as §1

[5] = target: T1, recombinant human CD3 epsilon/delta …; experiment: Octet BLI, mAb on FAB2G sensor, hCD3 E/D 200-50 nM; R^2 0.60
Protocol: as §1

[6] = target: T2, recombinant human CD3 epsilon/gamma …; experiment: Octet BLI, mAb on FAB2G sensor, hCD3 E/G 200-50 nM; R^2 0.49
Protocol: as §1

[7] = target: T1, recombinant human CD3 epsilon/delta …; experiment: Octet BLI, mAb on FAB2G sensor, hCD3 E/D 200-50 nM; R^2 0.98;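 also: antibodies purified from hybridoma supernatants, measured by Octet binding to recombinant human CD3 protein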
Protocol: as §1

[8] = target: T2, recombinant human CD3 epsilon/gamma …; experiment: Octet BLI, mAb on FAB2G sensor, hCD3 E/G 200-50 nM; R^2 0.79
Protocol: as §1

[9] = target: T1, recombinant human CD3 epsilon/delta …; experiment: Octet BLI, mAb on FAB2G sensor, hCD3 E/D 200-50 nM; R^2 0.96
Protocol: as §1

[10] = target: T2, recombinant human CD3 epsilon/gamma …; experiment: Octet BLI, mAb on FAB2G sensor, hCD3 E/G 200-50 nM; R^2 0.85
Protocol: as §1

[11] = target: T2, recombinant human CD3 epsilon/gamma …; experiment: Octet BLI, mAb on FAB2G sensor, hCD3 E/G 200-50 nM; R^2 0.64
Protocol: as §1

[12] = target: T1, recombinant human CD3 epsilon/delta …; experiment: Octet BLI, mAb on FAB2G sensor, hCD3 E/D 200-50 nM; R^2 0.94
Protocol: as §1

[13] = target: T2, recombinant human CD3 epsilon/gamma …; experiment: Octet BLI, mAb on FAB2G sensor, hCD3 E/G 200-50 nM; R^2 0.92
Protocol: as §1

[14] = target: T1, recombinant human CD3 epsilon/delta …; experiment: Octet BLI, mAb on FAB2G sensor, hCD3 E/D 200-50 nM; R^2 0.95
Protocol: as §1

[15] = target: T2, recombinant human CD3 epsilon/gamma …; experiment: Octet BLI, mAb on FAB2G sensor, hCD3 E/G 200-50 nM; R^2 0.96
[16] = target: T1, recombinant human CD3 epsilon/delta …; experiment: Octet BLI, mAb on FAB2G sensor, hCD3 E/D 200-50 nM; R^2 0.92
[17] = target: T2, recombinant human CD3 epsilon/gamma …; experiment: Octet BLI, mAb on FAB2G sensor, hCD3 E/G 200-50 nM; R^2 0.59
[18] = target: T2, recombinant human CD3 epsilon/gamma …; experiment: Octet BLI, mAb on FAB2G sensor, hCD3 E/G 200-50 nM; R^2 0.00
[19] = target: T2, recombinant human CD3 epsilon/gamma …; experiment: Octet BLI, mAb on FAB2G sensor, hCD3 E/G 200-50 nM; R^2 0.95
Protocol: as §1

T1 sequence (P07766 23-126, stated change not applied, chain 1 of 2): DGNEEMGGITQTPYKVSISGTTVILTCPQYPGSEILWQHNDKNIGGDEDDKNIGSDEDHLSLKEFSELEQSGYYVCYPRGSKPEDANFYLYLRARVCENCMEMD
T1 sequence (P04234 22-105, stated change not applied, chain 2 of 2): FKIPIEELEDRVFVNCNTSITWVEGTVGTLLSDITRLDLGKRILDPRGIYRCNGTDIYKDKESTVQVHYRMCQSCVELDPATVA
T2 sequence (P07766 23-126, chain 1 of 2): as the sequence (P07766 23-126, stated change not applied, chain 1 of 2) above
T2 sequence (P09693 23-116, chain 2 of 2): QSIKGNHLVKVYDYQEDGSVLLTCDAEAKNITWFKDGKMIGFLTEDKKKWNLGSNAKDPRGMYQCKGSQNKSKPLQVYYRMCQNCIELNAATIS

B1: ABL-CD3-36 (antibody, V domains shown)
VH: EVQLVESGGGLVQRGGSLRLSCAASGFTFSNYWMSWVRQAPGKGLEWVANIKEDGSEKYCVDSVKGRFTISRDNAKHSLYLQMNSLRAEDTAVYYCARERRTGYFDYWGQGTLVTVSS
VL: DIQMTQSPSTLSASVGDRVTITCRASQSISSWLAWFQQKTGKAPKLLIYKASSLESGVPSRFSGSGSGTEFTLTISSLQPDDFATYYCQQYISYSWTFGQGTKVEIK
notes: Chimeric hybridoma mAb: human V, CH1, upper hinge; mouse middle hinge, CH2, CH3
Kd [1]: 25 nM
Response [1]: 0.49
koff [1]: 0.00101 s⁻¹
kon [1]: 40400 M⁻¹ s⁻¹
Kd [2]: 4.18 nM
koff [2]: 0.00729 s⁻¹
kon [2]: 1.74e+06 M⁻¹ s⁻¹

B2: ABL-CD3-17 (antibody, V domains shown)
VH: EVQLVESGGGLVQPGGSLRLSCAASGFTFSRYSINWVRQAPGKGLEWVSYISSSSSTIYYADSVKGRFTISRDNAKNSLYLQMNSLRDEDTAVYYCARERWELLYFDYWGQGTLVTVSS
VL: NFMLTQPHSVSESPGKTVTISCTRSSGSIASKYVQWYQQRPGSSPTTVIYEDNQRPSGVPDRFSGSIDSSSNSASLTISGLKTEDEADYYCQSYDSNNRVFGGGTKLTVL
notes: as for B1
Kd [3]: 103 nM
Response [3]: 0.22
koff [3]: 0.0318 s⁻¹
kon [3]: 309000 M⁻¹ s⁻¹
Kd [4]: 210 nM
koff [4]: 0.132 s⁻¹
kon [4]: 627000 M⁻¹ s⁻¹

B3: ABL-CD3-18 (antibody, V domains shown)
VH: EVQLVESGEGLVQPGGSLRLSCAASGFTFSSYAMHWVRQAPGKGLEYVSAISSNGGRTYYADSVKGRFTISRDNSKNTLYLQMGSLRAEDMAVYYCARGGSLDYWGQGTLVTVSS
VL: DIVMTQTPLSSPVTPGQPASISCRSSQSLVHSDGNTYLNWLQQRPGQPPRLLIYKISDRFSGVPDRFSGSGAGTDFTLKIGRVEAEDVGVYYCMQSTQFPITFGQGTRLEIK
notes: as for B1
Kd [5]: < 0.001 nM
koff [5]: < 1e-07 s⁻¹
kon [5]: 29100 M⁻¹ s⁻¹
Kd [6]: < 0.001 nM
koff [6]: < 1e-07 s⁻¹
kon [6]: 27000 M⁻¹ s⁻¹

B4: ABL-CD3-21 (antibody, V domains shown)
VH: EVQLVESGGGLVKPGGSLRLSCAASGFTFSSYSMNWVRQAPGKGLEWVSSISRSSSYIYYADSVKGRFTLSRDNAKNSLYLQMNSLRGEDTAIYYCGRDGKGAIFLDYWGQGTLVTVSS
VL: SYELTQPPSVSVSPGQTARITCSGDALPKKYAYWYQQKSGQAPVLVIYEDSKRPSGIPERFSGSSSGTMATLTISGAQVEDEADYYCYSTHSSGNHRVFGGGTKLTVL
notes: as for B1
Kd [7]: 95.3 nM
Response [7]: 0.27
koff [7]: 0.036 s⁻¹
kon [7]: 378000 M⁻¹ s⁻¹
Kd [8]: 130 nM
koff [8]: 0.0994 s⁻¹
kon [8]: 766000 M⁻¹ s⁻¹

B5: ABL-CD3-22 (antibody, V domains shown)
VH: EVQLVESGGGLVQPGGSLRLSCAASGFTFSSYSMNWVRQAPGKGLEWVSYISSSSSTIYYADSVKGRFTISRDNAKNSLYLQMNSLRDEDTAVYYCARDGPVDYGMDVWGQGTTVTVSS
VL: SYELTQPPSVSVSPGQTARITCSGDALPKQYTYWCQQKPGQAPVLVIYKDSERPSGIPERFSGSSSGTTVTLTISGVQAEDEADYYCQSADSSGTYRVFGGGTKLTVL
notes: as for B1
Kd [9]: 49.2 nM
Response [9]: 0.08
koff [9]: 0.00513 s⁻¹
kon [9]: 104000 M⁻¹ s⁻¹
Kd [10]: 14.4 nM
koff [10]: 0.00639 s⁻¹
kon [10]: 444000 M⁻¹ s⁻¹

B6: ABL-CD3-27 (antibody, V domains shown)
VH: QVQLVQSGAEVKKPGASLKVSCKASGYTFTSYYMHWVRQAPGQGLEWMGIINPSNGNTISAQKFQGRVTMTRDTSTSTVYMEMSSLRSEDTAVYYCVRCWGYYVMDVWGQGTTVTVSS
VL: QTVVTQEPSFSVSPGGTVTLTCGLNSGSVSTSYYPSWYQQTPGQTPRTLIYSTNTRSSGVPDRFSGSILGNKAALTITGAQADDESDYYCVLYMGSGIWVFGGGTKLTVL
notes: as for B1
Kd [9]: 2.31 nM
Response [9]: 0.39
koff [9]: 0.000528 s⁻¹
kon [9]: 228000 M⁻¹ s⁻¹
Kd [11]: 3.65 nM
koff [11]: 0.00156 s⁻¹
kon [11]: 428000 M⁻¹ s⁻¹

B7: ABL-CD3-31 (antibody, V domains shown)
VH: EVQLVQSGAEVKKPGESLKISCKGSGYSFTNYWIGWVRQMPGKGLEWMGIIYPADSDTTYSPSFQGQVTISADKSITTAYLQWSSLKASDTAMYYCARHGGSYILDAFDIWGQGTMVTVSS
VL: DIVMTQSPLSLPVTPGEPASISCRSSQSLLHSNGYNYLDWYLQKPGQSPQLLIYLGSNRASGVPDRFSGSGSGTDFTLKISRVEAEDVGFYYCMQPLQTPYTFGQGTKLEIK
notes: as for B1
Kd [12]: 6.66 nM
koff [12]: 0.00149 s⁻¹
kon [12]: 223000 M⁻¹ s⁻¹
Kd [13]: 5.64 nM
koff [13]: 0.00173 s⁻¹
kon [13]: 306000 M⁻¹ s⁻¹

B8: ABL-CD3-32 (antibody, V domains shown)
VH: EVQLVESGGGLVKPGGSLRLSCEASGFTFSSYNMNWVRQAPGKGLEWVSSISSSSSYIYYTDSVKGRFTISRDNAKNSLYLQMNSLRAEDTAVYYCARAERGSYAFDFWGQGTMVTVSS
VL: not shown
notes: as for B1
Kd [14]: 38.9 nM
koff [14]: 0.0152 s⁻¹
kon [14]: 390000 M⁻¹ s⁻¹
Kd [15]: 31.6 nM
koff [15]: 0.00962 s⁻¹
kon [15]: 305000 M⁻¹ s⁻¹

B9: ABL-CD3-37 (antibody, V domains shown)
VH: EVQLVESGGGLVQPGGSLRLSCAASGFSFSSYSMNWVRQAPGKGLEWVSHIRSSTYSIYYADSVMGRFTISRDNAKNSLYLQMNSLRDEDTAVYFCARAKTGGDAFDIWGQGTMVTVSS
VL: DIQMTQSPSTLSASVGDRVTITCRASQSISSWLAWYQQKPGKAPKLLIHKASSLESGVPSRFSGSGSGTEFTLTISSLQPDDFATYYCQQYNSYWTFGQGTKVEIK
notes: as for B1
Kd [16]: 17.8 nM
koff [16]: 0.00404 s⁻¹
kon [16]: 227000 M⁻¹ s⁻¹
Kd [17]: 1.43 nM
koff [17]: 0.00269 s⁻¹
kon [17]: 1.89e+06 M⁻¹ s⁻¹

B10: ABL-CD3-39 (antibody, V domains shown)
VH: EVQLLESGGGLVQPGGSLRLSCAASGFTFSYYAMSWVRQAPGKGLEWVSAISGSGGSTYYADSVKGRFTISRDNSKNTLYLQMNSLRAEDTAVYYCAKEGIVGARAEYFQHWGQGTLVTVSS
VL: DVVMTQSPLSLPVTLGQPASISCRSSQSLVYSDGNTYLTWFQQRPGQSPRRLIYKVSNRDSGVPDRFSGSGSGTDFTLKISRVEAEDVEIYYCMQGTHWPLTFGGGTKVEIK
notes: as for B1
Kd [1]: 8.32 nM
Response [1]: 0.41
koff [1]: 0.000307 s⁻¹
kon [1]: 36900 M⁻¹ s⁻¹
Kd [18]: < 0.001 nM
koff [18]: < 1e-07 s⁻¹
kon [18]: 50000 M⁻¹ s⁻¹

B11: ABL-CD3-61 (antibody, V domains shown)
VH: EVQLVESGGGLVKPGGSLRLSCAASGFTFSSYSMNWVRQAPGKGLEWVSSISRSGTYIYYADSVKGRFTISRDNAKNSLYLQMNSLRAEDTAVYYCARERWELLYFDYWGQGTLVTVSS
VL: QTVVTQEPSLTVSPGGTVTLTCASSTGAVTSGYYPNWFQQKPGQAPRALIYSTSNKHSWTPARFSGSLLGGKAALTLSGVQPEDEAEYYCLLYYGGAYVFGTGTKVTVL
notes: as for B1
Kd [7]: 117 nM
Response [7]: 0.26
koff [7]: 0.0218 s⁻¹
kon [7]: 187000 M⁻¹ s⁻¹
Kd [19]: 69.2 nM
koff [19]: 0.0402 s⁻¹
kon [19]: 581000 M⁻¹ s⁻¹
